Tests used:
Test in all cases: biolayer interferometry (Octet), antibody captured on the probe, extracellular domain in solution
[1] = target: T1, human 2Ig-B7-H3 extracellular domain (human, UniProt Q5ZPR3 29-466)
T1 chain: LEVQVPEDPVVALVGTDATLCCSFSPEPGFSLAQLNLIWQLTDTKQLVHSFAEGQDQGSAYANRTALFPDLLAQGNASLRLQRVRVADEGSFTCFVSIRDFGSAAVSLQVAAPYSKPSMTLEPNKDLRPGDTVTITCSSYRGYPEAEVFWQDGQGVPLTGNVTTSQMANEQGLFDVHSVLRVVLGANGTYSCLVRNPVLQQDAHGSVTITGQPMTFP

[2] = target: T2, Cynomolgus 4Ig-B7-H3 extracellular domain (cynomolgus)
T2 construct: extracellular domain; Bought protein; also called Cynomolgus 4Ig-B7H-3 protein
Method: (§1) The extracellular domains of the indicated 4Ig-B7-H3 and 2Ig-B7-H3 proteins were purchased from R&D systems. All proteins were validated by the vendor to be both pure and functional. KD values were determined utilizing capture biolayer interferometry (Octet, Molecular Devices) in “affinity” mode, wherein the […] antibody was captured on the tip of the probe and placed into solutions containing different concentrations of target extracellular domain.

[3] = target: T3, Porcine 4Ig-B7-H3 extracellular domain (porcine, UniProt A0A287AJ27 27-466)
T3 construct: extracellular domain; Bought protein; also called Porcine 4Ig-B7H-3 protein
Method: as §1

B1: MIL33B chimeric antibody (full-length IgG) (antibody, V domains shown)
VH: EVQLQQSGPELVKPGASVKMSCKASGYTFTSYVMHWVRQSPGQGLEGIGYINSYSDGTKYNEKFKGKATLTSDKSSSTAYMELSGLTSEDSAVYYCARWGGLGNGAMDYWGQGTSVTVSS
VL: QIVLTQSPAIMSASPGEKVTMTCSVSSSVNYMHWYQQKSGTSPKRWIYDTSKLASGVPARFSASGSGTSYSLTISSMEAEDAATYYCQQWTSNPLTFGAGTKLELKR
notes: also called Chimeric VH + VL; MIL33B-chimera
How did the Kd [1] turn out when B1 was run?
The Kd was 13.2 nM.

B2: MIL33B-H1-hIgG1 (antibody, V domains shown)
VH: QVQLVQSGAEVKKPGASVKVSCKASGYTFTSYVMHWVRQAPGQRLEWMGYINSYSDGTKYNEKFKGRVTITSDTSASTAYMELSSLRSEDTAVYYCARWGGLGNGAMDYWGQGTLVTVSS
VL: EIVLTQSPATLSLSPGERATLSCSVSSSVNYMHWYQQKPGQAPRRLIYDTSKLASGIPARFSGSGSGTDYTLTISSLEPEDFAVYYCQQWTSNPLTFGQGTKLEIK
notes: also called AHF15945; AHF 15945
B2 was tested. Which Kd [1] did it give?
The Kd was 21.6 nM.

B3: MIL33B-H2-hIgG1 (antibody, V domains shown)
VH: QVQLVQSGAEVKKPGASVKVSCKASGYTFTSYVMHWVRQAPGQRLEWMGYINSYSDGTKYNEKFKGRATITRDTSASTAYMELSSLRSEDTAVYYCARWGGLGNGAMDYWGQGTLVTVSS
VL: EIVLTQSPATLSLSPGERATLSCSVSSSVNYMHWYQQKPGQAPRRLIYDTSKLASGIPARFSGSGSGTDYTLTISSLEPEDFAVYYCQQWTSNPLTFGQGTKLEIK
notes: also called AHF15938; AHF 15938
Which Kd [1] does the source give for B3 here?
The Kd was 14 nM.

B4: MIL33B-H3-hIgG1 (antibody, V domains shown)
VH: QVQLVQSGAEVKKPGASVKVSCKASGYTFTSYVMHWVRQAPGQRLEWMGYINSYSDGTKYNEKFKGRVTITRDTSASTAYMELSSLRSEDTAVYYCARWGGLGNGAMDYWGQGTLVTVSS
VL: EIVLTQSPATLSLSPGERATLSCSVSSSVNYMHWYQQKPGQAPRRLIYDTSKLASGIPARFSGSGSGTDYTLTISSLEPEDFAVYYCQQWTSNPLTFGQGTKLEIK
notes: also called hMIL33B-H3; humanized MIL33B-H3
B4 was tested. Which Kd [1] did it give?
The Kd was 43.5 nM.

What about the Kd [2] of the same binder?
Its Kd is 0.28 nM.

And the Kd [3]?
The Kd was 0.559 nM.
